Laboratory results as given in PMC5141497, “NMR studies on the interactions between yeast Vta1 and Did2 during the multivesicular bodies sorting pathway” (Scientific Reports, 2016).

Biological target: T1, Vta1 N-terminal domain (residues 1–167) (S. cerevisiae, UniProt Q06263 1-167)
T1 construct: Vta1, S. cerevisiae, N-terminal domain with two tandem MIT domains, residues 1-167; Isotope labelled (15N, 13C, 70% 2H) or unlabelled, depending on the NMR sample; also called Vta1NTD; WT Vta1NTD; source: E. coli BL21(DE3), purified (Ni-NTA, ULP1 cleavage, second Ni-NTA, Resource Q); not shown: His6, N-terminal, cleaved; SUMO, N-terminal, cleaved
T1 sequence (looked up): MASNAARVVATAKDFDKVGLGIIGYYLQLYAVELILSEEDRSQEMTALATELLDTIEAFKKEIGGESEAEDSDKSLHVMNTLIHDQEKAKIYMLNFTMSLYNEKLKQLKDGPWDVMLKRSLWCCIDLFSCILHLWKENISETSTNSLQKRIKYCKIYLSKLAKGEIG
Test: ITC; about 0.1 mM Vta1NTD titrated with 2.0 mM Did2_(176–204) peptide, iTC-200, 25 °C, 25 mM sodium phosphate pH 7.0, 50 mM NaCl, one set of sites model
Conditions: both partners purified

B1: Did2 fragment (176–204 aa) (peptide)
chain: WNVPEIKAKEVNVDDEKEDKLAQRLRALRG
notes: extra tryptophan inserted at the N-terminus of the peptide to estimate its concentration; Natural stretch with one added N-terminal Trp; Isotope labelled (15N, 13C) or unlabelled, depending on the NMR sample; source: E. coli BL21(DE3), purified (Ni-NTA, Resource Q, ULP1 cleavage, Superdex 75), lyophilized; not shown: His6, N-terminal, cleaved; SUMO, N-terminal, cleaved
With B1 the Kd was 12.8 ± 1 µM, the dH was -2.7 kcal/mol and the “stoichiometry N” value was 1.16 ± 0.0266.
